These results are taken from a protein production outcome set (Wang et al. 2014).

The data set is described as follows: label from the status in PepcDB records.
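Also: failed if final PepcDB status was selected cloned or expressed and not failed if soluble or beyond.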

For the sequence “MEIKNIKEFEKASKKLQKDTLKIALALLFLIGAALLALIFGQANSKGLLLIFAAVIGGYMAMNIGANDVSNNVGPAVGSKAISMGGAILIAAICEMLGAIIAGGEVVSTIKGRIVSPEFINDAHIFINVMLASLLSGALWLHVATLIGAPVSTSHSVVGGIMGAGMAAAGMVAVNWHFLSGIVASWVISPLMGALIAMFFLMLIKKTIAYKEDKKSAALKVVPYLVALMSLTFSWYLIVKVLKRLYALNFEIQLACGCILALLIFILFKRFVLKKAPQLENSHESINELFNVPLIFAAALLSFAHGANDVANAIGPLAAISQTLEDANSPIGNTLSSVPLWIMVVGAAGIALGLSLYGPKLIKTVGSEITELDKMQAFCIALSAVITVLLASQLGLPVSSTHIVVGAVFGVGFLRERLREQSRRRFARIRDNIVAAHFGEDLEEIEGFLERFDKANLKEKSLMLESLKKSKNTAIALELKKKEKKSLKKVYKEEVIKRSILKKIVTAWLVTVPVSALLGALLFVALGFIEKYF”, the protein production result is listed as “failed”.
Turning to “MEIKRFGRIREVIPLPPLTEIQVESYRRALQADVPPEKRENVGIQAAFRETFPIEEEDKGKGGLVLDFLEYRLGEPPFPQDECREKDLTYQAPLYARLQLIHKDTGLIKEDEVFLGHIPLMTEDGSFIINGADRVIVSQIHRSPGVYFTPDPARPGRYIASIIPLPKRGPWIDLEVEPNGVVSMKVNKRKFPLVLLLRVLGYDQETLARELGAYGELVQGLMDESVFAMRPEEALIRLFTLLRPGDPPKRDKAVAYVYGLIADPRRYDLGEAGRYKAEEKLGIRLSGRTLARFEDGEFKDEVFLPTLRYLFALTAGVPGHEVDDIDHLGNRRIRTVGELMTDQFRVGLARLARGVRERMLMGSEDSLTPAKLVNSRPLEAAIREFFSRSQLSQFKDETNPLSSLRHKRRISALGPGGLTRERAGFDVRDVHRTHYGRICPVETPEGANIGLITSLAAYARVDELGFIRTPYRRVVGGVVTDEVVYMTATEEDRYTIAQANTPLEGNRIAAERVVARRKGEPVIVSPEEVEFMDVSPKQVFSVNTNLIPFLEHDDANRALMGSNMQTQAVPLIRAQAPVVMTGLEERVVRDSLAALYAEEDGEVAKVDGNRIVVRYEDGRLVEYPLRRFYRSNQGTALDQRPRVVVGQRVRKGDLLADGPASENGFLALGQNVLVAIMPFDGYNFEDAIVISEELLKRDFYTSIHIERYEIEARDTKLGPERITRDIPHLSEAALRDLDEEGVVRIGAEVKPGDILVGRTSFKGESEPTPEERLLRSIFGEKARDVKDTSLRVPPGEGGIVVRTVRLRRGDPGVELKPGVREVVRVYVAQKRKLQVGDKLANRHGNKGVVAKILPVEDMPHLPDGTPVDVILNPLGVPSRMNLGQILETHLGLAGYFLGQRYISPIFDGAKEPEIKELLAQAFEVYFGKRKGEGFGVDKREVEVLRRAEKLGLVTPGKTPEEQLKELFLQGKVVLYDGRTGEPIEGPIVVGQMFIMKLYHMVEDKMHARSTGPYSLITQQPLGGKAQFGGQRFGEMEVWALEAYGAAHTLQEMLTLKSDDIEGRNAAYEAIIKGEDVPEPSVPESFRVLVKELQALALDVQTLDEKDNPVDIFEGLASKR”, the protein production result is given as “not failed”.
Under “MEIKSILIANRGEIALRALRTIKEMGKKAICVYSEADKDALYLKYADASICIGKARSSESYLNIPAIIAAAEIAEADAIFPGYGFLSENQNFVEICAKHNIKFIGPSVEAMNLMSDKSKAKQVMQRAGVPVIPGSDGALAGAEAAKKLAKEIGYPVILKAAAGGGGRGMRVVENEKDLEKAYWSAESEAMTAFGDGTMYMEKYIQNPRHIEVQVIGDSFGNVIHVGERDCSMQRRHQKLIEESPAILLDEKTRTRLHETAIKAAKAIGYEGAGTFEFLVDKNLDFYFIEMNTRLQVEHCVSEMVSGIDIIEQMIKVAEGYALPSQESIKLNGHSIECRITAEDSKTFLPSPGKITKYIPPAGRNVRMESHCYQDYSVPAYYDSMIGKLVVWAEDRNKAIAKMKVALDELLISGIKTTKDFHLSMMENPDFINNNYDTNYLARH” stands “not failed”; under “MEISLLQAFALGIIAFIAGLDMFNGLTHMHRPVVLGPLVGLVLGDLHTGILTGDTLELVWMGLAPLAGAQPPNVIIGTIVGTAFAITTGVKPDVAVGVAVPFAVAVQMGITFLFSVMSGVMSRCDRMAENADTRGIERVNYLALLALGTFYFLCAFLPIYFGAEHAKTIIDVLPQRLIDGLGVAGGIMPAIGFAVLLKIMMKNVYIPYFILGFVAATWLKLPVLAIAAAALAMALIDLLRKSPEPTQPAAQKEEFEDGI”, “failed”.
With “MEISRGDFEQAYQNERNRMQAQLGDYFSNLLADPTYVASFRKSVLDRMVNDLLLEQHAASLGLRVSDEQVRQLILEIPQFQSQGVFDSTAYQATLRRAGFTPEMYAEYLRKDLVRNQLMSALQGSEFSLAGEVNLQDQLISQTRDIRTITLSLEDFAKKVTLSDEEIDQYYKTNTERFTRPEQVKVSYVELSADGLKAQVSVDDAAAQQYYQEHLDKYSTAEQRNVSHILIEGNDEQKAQAILDELNAGADFATLAKEKSQDLGSAAEGGSLGWIEPDTMDPAFEAAAFALTEKGQVSGLVKSDFGYHIIRLDDIKAPVVKPYSEVEQAIKQELIDQQALDSFYAKQSELEKMAFEHSDSLDEAAKAISATVVHTDFISAEQAPEVLTTPAVLQALKSPEVKEDGLNSEVIEVAPEHVVVVRVEEFRPETVLPLDEVKSQVVEQLSRMKGEQQALELGNQLVTALKAGETDLLAQKGVSFGELQMIDRSSPLANTVYAMVKPQEGEKVYAQAKDFDGNIVVIELSKVESKLTPAYHEQIATQLERIGSQQDLAGVISVLRQNTDIEYHIATELEHHHHHH”, the protein production entry is on record as “not failed”.
Turning to “MEITDPGDFRQRIETSFARQGVVQAINAEISRIEHRLVEIELPFHEKLTQQHGILHAGVIAAGLDTACTYAAYTIIEPEASLLTIEFKVNLMSPGRGERFLFRGEIIKPGNNLIVADGRAYALSDGPAKLIASMTGTMMVVKGLEHHHHHH”, the protein production result is recorded as “not failed”.
On to “MEKANIGFKAGIIFEKLGETGLITIAELARRLNFAADETALAAGWLARENKIYIERRNGLLYIRKELEHHHHHH”, for which the protein production result was “failed”.
Turning to “MEKAVHSSTTSGPAVPGETTKTGTSIIDTAASAVQSFAPVNQIHQHLCAFHFYADDMARQVEAHHFCSHVNEEMRQCLIYDGPDANARLIGLEYIVSEKLFMTLPDEEKKLWHSHEWEVKGGFLFMPGVPGAIQRKDLDKVAKTYGKVFHFWQVDLGHELPIGLPNVMMAVTRDGQLFHEMIQEAEKRFGVSVEGERDSRAYMSGPELGIHPLANGGGKGMKLELREVDIKPVESVGSVFV”, the protein production entry is given as “failed”.
With “MEKHSHEHHHHHDISSISKNKLFFVIIFNFIIALAEVIGGSISGSLSLISDALHNLSDTASLILSYVSIKISEKPKNKAKTYGYKRANILAAFINSAALIGISIFLGVQALEKLTSLKKINANIVIVVALIGLLGNFLSVIILKKGAEKSLNVRSSYLHMLSDAMASLAVIISGVFIKYFAIYWIDSVLTIFINMLILKSSYNILKESINILMQTTPVNLDMDDVKEQLLKIKEIKGVHHFHIWTLDENNIVLEGHIEIDDILVSETRAISDKIEHILNEDFHITHVVIQFESTSCEDNICKI”, the protein production result is “failed”.
For “MEKIEDQFASLHIVRRSSEPKEPTYLLGIDTSKTVQADKGGLVAVLCSNGSIRIYDKETLHLLREFGGSPGLLSGVSFANSCDSVYSASTDGTVKCWDARGASEKPVQLFKGYPSCSFISFDVNCKDHVICAGAEKVDEDALLVFWDARFTSQDLSTRDPLGAYSETHSDDITQVRFHPSNPNLVVSGSTDGLVNVFDLSADKEEDALVATCNSVSSVSCIGWCGKDYKQIYCMTHDEGFCWWDLNHLDTDEPITCLNIQDVREITDVKDGHLDYLIGGLYHEKMDRLFVIGGTNTGKIHLLSCTSAGLTHVTSLHGGHAATVRSFCWNVSEDSLLTGGEDAQLLLWKPGAMEKTFTKKDSLKIASSVQQRVRVHSSDSYKKRKQQ”, the protein production result is “failed”.
For the sequence “MEKILLERNWQDLEKLVLVSSKKAIRTLVNRIYIKDGLGFWRAVEALGVASALAEEQKKDSSVELVRRYFWSLNEESGGNAWNAAEAIGSIMASNPKECGHFNWMLANLLEDESLQEGTLWGLLNLSINAPEVVDPLVERVYPFLEARDVNQRGLAVWIFSLMKACPSAKERWEIEEELHKTLIQDQEMAEIYWEGEYYHFPVSELLGKEIVTFYAREYKQADFTWNISVASSQKGLCWVGLGTPEKEEGELRTWVQKRVPGSLVIPRALPNQKVMEQLEDYFSGIRQEFNLPLDPRGTDFQLKVWEELCRIPYGETRSYGEIAQNIGNPKGQRAVGLANNKNPIAIIIPCHRVVGKKGDLVGYASGLDHKVRLLNWEAAHRHQ”, the protein production result is recorded as “failed”.
As for “MEKKFLDILVCPVTKGRLEYHQDKQELWSRQAKLAYPIKDGIPYMLENEARALSEEELKALEHHHHHH”, the protein production result is given as “not failed”.
Under “MEKLSAREKPDINVAEAWEQYWNKTLVNATPVLWDANVERAVVVDLPRFQSFFDTELPLIDFACGNGTQTKFLSQFFPRVIGFDVSKTALEMASKENTAANISYRLLDGLVPEQAAQIHSEIGDANIYMRTGFHHIPVEKRELLAQSLRTLLGKQGVMYLIELGTGCIEFFNSLLEKYGKLPYELSLVMEHGIRPGIFTTEDIELYFPDFEILSQGESLFQSIHKLPDGNYATPPAFWAVIKRH” stands “failed”; under “MEKNRRGIQSVELGSRVLQALAQFGRPAGLTELAQECDMPPGKVHPYLVSFMKVGFVARDPASGLYELGHLALELGLAKLHRLDPVREASQAIADLAAETGHGTGLVVWGNLGPTLIRLEEPAHPLHVNLRIGTVMSLVHTATGRLFAAYLPAKVVSRVLEADPMGVHFGSRHQSRPAQEDYERQLSEIRSRGISRTLGSPIPGIDAFCAPVFDSMGHIAAGLLVMGPSATFDSDWDGQIATRLHACANDISRKLGYIDTPASPRAAR”, “failed”; under “MEKNVTPMIRQYLDIKKKYKDAVLFFRVGSFYEMFFDDAIEVSKLLNLTLTKRENVPMCGVPYHTSKEYIRKLILFDKKVAICEQASNSTSGGPLEREVVEVITPGVIIDEDFLNDDINNYLVAISDYKDYYSFSYIDLSTSSLGIMFYENGFFEKLKRDLEKYSPKEIIVSENFYYEYSEKLNLSRFLINRVPTWHLDKDIAIKTIKEHFNILGLSSLGFDEEKPYYISIFLIINHIKNNLKNLLSNIDKIDINNDSSYMFLDDVTQVNLELVKNNNDFSSQYSLYSVLNDCKTAMGKRLLREFILNPILNISEINTRLDHVEFFCKNISLTVTLRETFINIWDIERIISRIQMKRYIKKDFLFIEKALSVFFTVKKLFDKHNFDYWNFDKFEEDSISKVYFLINSAISSAPDELIKRGYDLKLDNLKDLKINANKYIDQYLESERLLSKINNLKIRKTNNRGLFFEVTKSNYAQVPPHFMESQALNSSKRYKTEKLISLEVDINNAEDNVVAFEQEIFDEIASNVVMHNKVLKKVAEFFAYIDLVVNFGYLAKKNEYKRPVLTSGKEILLEKSRHPVVEHYTKNTEIFTENFVRINKEKYFCLITGPNMAGKSTYLRQVALITLMAHIGSFVPASKALIGITDKIFCRIGASDNIAKGESTFLVEMNETANILRNATEKSLIIMDEVGRGTSTNDGLAIAYSIIEYILEYIKARSLFATHFHELSSINHQAFINLSMKIEKQGNDLVFLREVEEKPSLNSYGIYVARIAGLPLRVIDRANVILESLVGREGNSCLEFLPHVSSDGNDKEILKNDTDIHIKLNEYLELKNFISNIDINNITPFQSIELLNQIVLKVISQSS”, “failed”.
Regarding “MEKRLDYITDLMALGPTANARTIQRRQTAHRLAIAEAWQVKPGEKILEIGCGQGDLSAVLADQVGSSGHVTGIDIASPDYGAPLTLGQAWNHLLAGPLGDRLTVHFNTNLSDDLGPIADQHFDRVVLAHSLWYFASANALALLFKNMAAVCDHVDVAEWSMQPTALDQIGHLQAAMIQGLLYAIAPSDVANIRTLITPDTLAQIAHDNTWTYTAGTIVEDPTLDDAHWEIATTNALLTELKLSTDLRDRVKPLLEAMSHNGTASLATFTGRITF”, the protein production result is given as “not failed”.
